We go through 3 molecules from patent publication US20210238271A1 (Janssen / Centocor, published 2021).

Experiment [1] concerns the target T1, recombinant human TNFα (human, UniProt P01375 77-233, 125I label in the receptor-blocking assay only). In words: cell-based or functional assay.
In experiment [2] the target is T1, recombinant human TNFα. In words: inhibition of 125I-TNFα binding to plate-coated p55-sf2, hybridoma supernatants. As to the method: (§1) Assay for Inhibition of TNF Binding to Receptor. […] Serial dilutions of the eight TNV cell supernatants were prepared in 96-well round-bottom plates using PBS/0.1% BSA as diluent. […] The mixture was preincubated for one hour at RT. […] After 2 hrs at RT, Optiplates were washed three times with PBS-Tween. […] of Microscint-20 was added and the cpm bound determined using the TopCount gamma counter.
A simple binding assay was done to determine whether the eight TNV mAbs contained in hybridoma cell supernatant were capable of blocking TNFα binding to receptor. The concentrations of the TNV mAbs in their respective cell supernatants were first determined by standard ELISA analysis for human IgG.

The target in experiment [3] is T1, recombinant human TNFα. In words: competition: 125I-TNFα (5 ng/ml) preincubated with hybridoma supernatant, then bound to plate-coated p55-sf2, gamma counting; blocked partner p55-sf2. On the procedure:
Varying amounts of hybridoma cell supernatants containing known amounts of TNV mAb were preincubated with a fixed concentration (5 ng/ml) of ¹²⁵I-labeled TNFα. […] Although eight TNV mAb samples were tested in these experiments, for simplicity three of the mAbs that were shown by DNA sequence analyses to be identical to one of the other TNV mAbs (see Section 5.2.2) are not shown here. Each sample was tested in duplicate. The results shown are representative of two independent experiments.
as §1
A simple binding assay was done to determine whether the eight TNV mAbs contained in hybridoma cell supernatant were capable of blocking TNFα binding to receptor.

A further experiment concerns the target T2, human lymphotoxin (human, UniProt P01374 35-205, limits assumed).
T2 sequence (looked up): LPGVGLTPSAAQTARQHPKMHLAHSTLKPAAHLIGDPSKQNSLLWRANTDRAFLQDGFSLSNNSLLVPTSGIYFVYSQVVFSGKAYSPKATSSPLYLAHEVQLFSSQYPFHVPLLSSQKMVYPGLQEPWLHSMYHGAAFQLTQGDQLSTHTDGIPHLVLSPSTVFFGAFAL
In words: not described.

Substitutions are numbered along the chain they refer to. Numbers in names are those of the source.

B1: GenTNV148.26.12 (antibody, human IgG1, kappa, V domains shown)
VH: QVQLVESGGGVVQPGRSLRLSCAASGFIFSSYAMHWVRQAPGNGLEWVAFMSYDGSNKKYADSVKGRFTISRDNPKNTLYLQMNSLRAEDTAVYYCARDRGIAAGGNYYYYGMDVWGQGTTVTVSS
VL: EIVLTQSPATLSLSPGERATLSCRASQSVYSYLAWYQQKPGQAPRLLIYDASNRATGIPARFSGSGSGTDFTLTISSLEPEDFAVYYCQQRSNWPPFTFGPGTKVDIKR
notes: Totally human IgG1 kappa from hybridoma, tested as hybridoma supernatant; also called C420A
As for B1, in the experiment with recombinant human TNFα [1], the “neutralizing TNFα bioactivity” value was 4 fold. The “fold better at blocking TNF binding than TNV118 and TNV14” value with recombinant human TNFα [2] is about 4 fold. The “IC50 (read off the curve)” value with recombinant human TNFα [3] was about 4 ng/mL.

B2: GenTNV86.14.34 (antibody, human IgG1, kappa, V domains shown)
VH: B1 VH
VL: B1 VL
notes: Totally human IgG1 kappa from hybridoma, tested as hybridoma supernatant; Only the variable regions were compared; also called C417A
B2: the “fold better at blocking TNF binding than TNV118 and TNV14” value in the experiment with recombinant human TNFα [2] is about 4 fold.

B3: golimumab (antibody, human IgG1, kappa, V domains shown)
VH: B1 VH with P75S
VL: B1 VL
notes: Fully human IgG1 (G1m[z] allotype), kappa; also called SIMPONI
On to B3, for which, in the experiment with human lymphotoxin, the binding result is on record as “no binding”.
